Results published in paper PMC6294510.
Read-outs that look alike come from different tables or passages of the source.

What was measured:
ARTD2FL WT [1] = biological target: T1, ARTD2FL WT (Homo sapiens, UniProt Q9UGN5 1-583); assay: ITC
ARTD2WGR+CAT [2] = biological target: T2, ARTD2WGR+CAT (Homo sapiens, UniProt Q9UGN5 90-583); assay: SEC-SLS
ARTD2WGR [3] = biological target: T3, ARTD2WGR (Homo sapiens, UniProt Q9UGN5 90-218); assay: X-ray crystallography
ARTD2WGR+CAT [4] = biological target: T2, ARTD2WGR+CAT; assay: SEC-SLS; remark: listed apart in the source
ARTD2FL WT [5] = biological target: T1, ARTD2FL WT; assay: SEC-SLS
ARTD2WGR [6] = biological target: T3, ARTD2WGR; assay: X-ray crystallography; remark: listed apart in the source
ARTD2WGR [7] = biological target: T3, ARTD2WGR; assay: X-ray crystallography; remark: listed apart in the source
ARTD2FL WT [8] = biological target: T1, ARTD2FL WT; assay: EMSA
ARTD2FL R153A = ARTD2FL R153A (Homo sapiens, UniProt Q9UGN5 1-583, R153A); assay: SPR
ARTD2FL Y201F = ARTD2FL Y201F (Homo sapiens, UniProt Q9UGN5 1-583, Y201F); assay: SPR
ARTD2FL N127A = ARTD2FL N127A (Homo sapiens, UniProt Q9UGN5 1-583, N127A); assay: SPR
ARTD2FL W151A = ARTD2FL W151A (Homo sapiens, UniProt Q9UGN5 1-583, W151A); assay: SPR
ARTD2FL K183A = ARTD2FL K183A (Homo sapiens, UniProt Q9UGN5 1-583, K183A); assay: SPR
ARTD2FL K179A = ARTD2FL K179A (Homo sapiens, UniProt Q9UGN5 1-583, K179A); assay: SPR
Chain of ARTD2FL K179A (Q9UGN5 whole entry K179A): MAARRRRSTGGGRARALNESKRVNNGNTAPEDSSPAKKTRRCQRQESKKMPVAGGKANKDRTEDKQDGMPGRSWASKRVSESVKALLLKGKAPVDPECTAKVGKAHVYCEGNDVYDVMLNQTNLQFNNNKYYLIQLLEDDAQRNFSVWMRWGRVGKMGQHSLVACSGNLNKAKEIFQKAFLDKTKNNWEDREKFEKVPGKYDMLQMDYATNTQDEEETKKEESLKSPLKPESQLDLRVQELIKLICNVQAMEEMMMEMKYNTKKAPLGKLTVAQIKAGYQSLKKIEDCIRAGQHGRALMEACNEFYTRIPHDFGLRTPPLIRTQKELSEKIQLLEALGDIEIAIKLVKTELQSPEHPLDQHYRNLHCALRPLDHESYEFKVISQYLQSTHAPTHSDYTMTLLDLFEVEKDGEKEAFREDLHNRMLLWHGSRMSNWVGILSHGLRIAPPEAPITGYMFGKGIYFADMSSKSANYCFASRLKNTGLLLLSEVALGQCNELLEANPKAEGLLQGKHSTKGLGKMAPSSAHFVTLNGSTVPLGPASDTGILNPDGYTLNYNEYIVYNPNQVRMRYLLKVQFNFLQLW

T1 sequence (Q9UGN5 whole entry): as the sequence (Q9UGN5 whole entry K179A) above, with A179K counted along it
T3 sequence (Q9UGN5 90-218): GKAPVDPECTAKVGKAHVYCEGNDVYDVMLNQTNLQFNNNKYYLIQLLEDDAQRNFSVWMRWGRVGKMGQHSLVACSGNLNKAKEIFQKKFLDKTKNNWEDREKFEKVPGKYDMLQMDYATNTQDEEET
T2 sequence (Q9UGN5 90-583): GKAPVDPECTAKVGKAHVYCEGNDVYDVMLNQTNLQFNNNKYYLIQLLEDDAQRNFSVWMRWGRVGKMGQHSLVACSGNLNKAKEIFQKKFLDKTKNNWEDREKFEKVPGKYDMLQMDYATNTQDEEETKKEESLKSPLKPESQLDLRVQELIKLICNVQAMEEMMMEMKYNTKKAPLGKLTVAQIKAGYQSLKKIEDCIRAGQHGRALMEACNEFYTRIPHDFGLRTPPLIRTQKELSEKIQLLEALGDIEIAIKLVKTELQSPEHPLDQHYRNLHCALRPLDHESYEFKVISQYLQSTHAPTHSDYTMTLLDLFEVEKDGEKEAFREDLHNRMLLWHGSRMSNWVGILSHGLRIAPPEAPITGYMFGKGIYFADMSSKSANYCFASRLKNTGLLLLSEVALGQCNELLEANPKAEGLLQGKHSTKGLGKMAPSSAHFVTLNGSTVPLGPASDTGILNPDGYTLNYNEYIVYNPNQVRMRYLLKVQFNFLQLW
Chain of ARTD2FL Y201F (Q9UGN5 whole entry Y201F): as the sequence (Q9UGN5 whole entry K179A) above, with A179K, Y201F counted along it
Chain of ARTD2FL W151A (Q9UGN5 whole entry W151A): as the sequence (Q9UGN5 whole entry K179A) above, with W151A, A179K counted along it
Chain of ARTD2FL R153A (Q9UGN5 whole entry R153A): as the sequence (Q9UGN5 whole entry K179A) above, with R153A, A179K counted along it
Chain of ARTD2FL N127A (Q9UGN5 whole entry N127A): as the sequence (Q9UGN5 whole entry K179A) above, with N127A, A179K counted along it
Chain of ARTD2FL K183A (Q9UGN5 whole entry K183A): as the sequence (Q9UGN5 whole entry K179A) above, with A179K, K183A counted along it

## GGGTCTTTTGACCCTCGAGCTTTTGCTCGA (structured_DNA, 5'-phosphate) [DNA-1 nicked hairpin]
ARTD2FL WT [1]
  binding result: binds
ARTD2WGR+CAT [2]
  binding result: binds

B1: DNA-6 (dsDNA)
DNA 1: GCCTAGCTACGTAGCTAGGC
DNA 2: GCCTAGCTACGTAGCTAGGC
ARTD2WGR [3]
  binding result: binds

B2: DNA-13 (dsDNA)
DNA 1: GACGCAACCCGGAGAACACA
DNA 2: TGTGTTCTCCGGGTTGCGTC
modifications: 5'-phosphate on forward strand
ARTD2WGR+CAT [4]
  binding result: binds
ARTD2FL WT [5]
  binding result: binds

B3: DNA-9 (dsDNA)
DNA 1: CGGTCGCCTATAGGC
DNA 2: CGGTCGCCTATAGGC
modifications: 5'-phosphate on both strands
ARTD2WGR [6]
  binding result: binds

B4: DNA-5 (dsDNA)
DNA 1: GCCTATAGGC
DNA 2: GCCTATAGGC
modifications: 5'-phosphate on both strands
ARTD2WGR [7]
  binding result: binds

## GGAAGTTCTTTTGAACTTCCGCGAAGCTTTTGCTTCGC (structured_DNA, 5'-phosphate) [DNA-2 nicked dumbbell]
ARTD2FL WT [8]
  binding result: binds

## GGAAGTTCTTTTGAACTTCC (structured_DNA) [DNA-3 blunt hairpin]
ARTD2FL WT [1]
  binding result: binds

B5: DNA-12 (dsDNA)
DNA 1: GCAGCATGGCGGAGTTCACA
DNA 2: TGTGAACTCCGCCATGCTGC
modifications: 5'-phosphate on forward strand
ARTD2FL R153A
  binding result: no binding
ARTD2FL Y201F
  binding result: no binding
ARTD2FL N127A
  binding result: no binding
ARTD2FL W151A
  binding result: no binding
ARTD2FL K183A
  binding result: no binding
ARTD2FL K179A
  binding result: no binding
